Read-outs that look alike come from different tables or passages of the source.
What was measured:
human TSLPR (on cells) [1] = target: T1, human TSLPR (on cells) (human, UniProt Q9HC73 23-371); assay: cell-based or functional assay
T1 sequence: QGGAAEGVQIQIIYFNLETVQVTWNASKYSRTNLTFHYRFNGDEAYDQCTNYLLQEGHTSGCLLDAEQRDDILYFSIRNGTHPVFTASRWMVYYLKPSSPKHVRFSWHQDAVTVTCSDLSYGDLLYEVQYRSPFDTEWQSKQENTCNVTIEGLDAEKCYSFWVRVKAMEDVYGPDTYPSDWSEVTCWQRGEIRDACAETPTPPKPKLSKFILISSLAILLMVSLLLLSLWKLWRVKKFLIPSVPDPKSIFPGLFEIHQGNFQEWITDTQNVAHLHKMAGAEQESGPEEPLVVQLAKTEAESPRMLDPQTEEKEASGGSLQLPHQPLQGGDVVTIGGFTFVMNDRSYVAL

[2] = target: TSLPR-ECD (extracellular domain of TSLPR) (human) (UniProt Q9HC73); assay: SPR (Biacore 3000), antibody captured by anti-IgG, TSLPR-ECD as analyte, 25 °C, 1:1 Langmuir fit
[3] = target: T2, Recombinant human TSLPR-Fc (human, UniProt Q9HC73 23-231); assay: blocking ELISA: antibody on coated TSLPR-Fc, then TSLP + IL7Rα-Fc; TSLP binding detected
T2 construct: also called recombinant human soluble TSLPR-Fc fusion protein; not shown: Fc part
T2 sequence: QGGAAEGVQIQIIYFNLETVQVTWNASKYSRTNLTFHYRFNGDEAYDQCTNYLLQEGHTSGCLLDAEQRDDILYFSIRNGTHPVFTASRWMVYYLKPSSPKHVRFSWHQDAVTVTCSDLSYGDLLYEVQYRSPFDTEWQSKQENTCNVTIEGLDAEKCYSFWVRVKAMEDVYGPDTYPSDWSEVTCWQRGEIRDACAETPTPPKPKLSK
Protocol: Recombinant human TSLPR-Fc was coated to 96-well Nunc Maxisorp™ plate wells by incubating 50 μl of a 0.2 μg/ml solution of TSLPR-Fc in PBS per well for 1 h at RT. Subsequently the wells were blocked with 1% Crotein™ C in PBS (blocking buffer) for 1 h at RT, followed by two washes with wash buffer (ice-cold PBS/0.05% TWEEN® 20). 50 μl of anti-TSLPR antibody solution (antibodies and according to WO 2007/112146) were then added to the wells and incubated for 2 h at 4° C., followed by four wash steps. After addition of 50 μl of a mixture of human recombinant TSLP (12.5 ng/ml) and human recombinant IL7Rα-Fc (1 μg/ml) in blocking buffer, the plate was shaken for 1 h at 4° C., followed by further four wash steps. TSLP binding was detected by incubation with 50 μl of biotinylated anti-TSLP antibody (0.08 μg/ml in blocking buffer), followed by four washes and incubation with 50 μl of streptavidin-HRP (0.25 μg/ml in blocking buffer) per well. After another four washing steps, color was developed by incubation with 50 μl of 3,3,5,5-Tetramethylbenzidine substrate, followed by addition of 50 μl of 1 N HCl. Absorbance was read out at 450 and 620 nm.

human TSLPR (on cells) [4] = target: T1, human TSLPR (on cells); assay: cell-based or functional assay; remark: listed apart in the source
human TSLPR (on cells) [5] = target: T1, human TSLPR (on cells); assay: FACS on BA/F3 cells stably overexpressing human TSLPR and IL-7Rα
Protocol: (§1) BA/F3-TSLPR/IL7Rα or Cyno-TSLPR-HEK293 cells were starved from TSLP overnight, harvested by centrifugation, washed once in PBS and re-suspended in FACS buffer (PBS/5% FCS) at 10⁶/ml. 100 μl of cell suspension were incubated in a 96-well round-bottom plate well together with 100 μl of anti-TSLPR antibody solution for 45 minutes on ice. After three washes with FACS buffer, cells were re-suspended in a solution of PE-coupled anti-hamster-F(ab)2 (Dianova, Hamburg, Germany, #127-115-160) (1:200 in FACS buffer) and incubated for 30 minutes on ice. After three further washes cells were re-suspended in 200 μl of FACS buffer and measured on a FACSCanto™ flow cytometer (10,000 cells, flow rate 3).

[6] = target: T3, Cynomolgous TSLPR (on HEK293 cells) (Cynomolgous monkey); assay: FACS on HEK293 cells transiently transfected with Cynomolgous TSLPR
T3 construct: also called Cyno-TSLPR-HEK293; HEK-Cyno-TSLPR
T3 chain: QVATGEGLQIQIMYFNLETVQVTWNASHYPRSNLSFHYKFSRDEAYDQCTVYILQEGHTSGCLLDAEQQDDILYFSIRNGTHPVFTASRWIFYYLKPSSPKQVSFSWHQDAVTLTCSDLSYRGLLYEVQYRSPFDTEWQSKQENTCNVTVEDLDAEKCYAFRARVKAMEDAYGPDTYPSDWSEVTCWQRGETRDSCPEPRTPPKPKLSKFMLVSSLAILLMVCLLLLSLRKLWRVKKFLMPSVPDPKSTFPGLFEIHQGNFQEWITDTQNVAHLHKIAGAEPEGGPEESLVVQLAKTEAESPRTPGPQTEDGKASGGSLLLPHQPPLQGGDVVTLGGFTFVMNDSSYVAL
Protocol: as §1

[7] = target: T4, TSLPR-ECD (extracellular domain of TSLPR) (human, UniProt Q9HC73 23-231); assay: SPR (Biacore 3000), antibody captured by anti-IgG, TSLPR-ECD as analyte, 25 °C, 1:1 Langmuir fit
T4 construct: Obtained by cleavage of a TSLPR-Fc fusion protein expressed in HEK cells; also called analyte 2
T4 sequence: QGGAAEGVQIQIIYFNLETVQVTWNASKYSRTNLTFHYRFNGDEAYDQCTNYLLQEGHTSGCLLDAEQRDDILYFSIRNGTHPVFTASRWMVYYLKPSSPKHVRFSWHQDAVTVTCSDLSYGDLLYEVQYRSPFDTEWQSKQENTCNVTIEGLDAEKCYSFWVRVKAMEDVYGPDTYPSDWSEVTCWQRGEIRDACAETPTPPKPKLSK
Protocol: The binding properties of monoclonal anti-TSLPR antibodies and according to WO 2007/112146 were analyzed by surface plasmon resonance (SPR) technology using a Biacore 3000 instrument. The affinity was determined using an assay setup with capturing antibodies. These capturing antibodies (goat anti-human-IgG, goat anti-hamster-IgG) were immobilized on the surface of a CM5 biosensorchip using amine coupling chemistry. The capturing antibodies were injected in sodium acetate buffer, pH 5.0 at a concentration of 5 μg/ml aiming for a surface density of approx 1000 RU. Remaining reactive groups were inactivated by an injection of 1 M ethanolamine/HCl pH 8.5. Running buffer was HBS-P. The anti-TSLPR antibodies (analyte 1) were diluted in HBS-P to a concentration of 25 nM and injected at a flow rate of 5 μl/min for 3 minutes, resulting in a binding signal of 100-400RU dependent on the antibodies applied. The extracellular domain of TSLPR, TSLPR-ECD, obtained by cleavage of a TSLPR-Fc fusion protein expressed in HEK cells (analyte 2), was injected in concentrations ranging from 0-50 nM at a flow rate of 20 μl/min. The contact time (association phase) was 3 min for TSLPR followed by 5 minutes of dissociation. Regeneration solution 10 mM glycine HCl pH1.5 or 10 mM glycine HCl pH1.7 was injected twice at a flow rate of 10 μl/min for 1 min to remove any bound protein after each binding cycle. All interactions were performed at 25° C. (standard temperature). Signals were detected at a detection rate of 1 signal/second. The signals from a reference flow cell (FC1: same capturing antibody and addition of control antibody) and from blank buffer injections were subtracted and data were evaluated. All binding curves were fitted to a 1:1 Langmuir binding model. Association rate constant (ka), dissociation rate constant (kd) and the dissociation equilibrium constant (KD) were calculated accordingly.

human TSLPR (on cells) [8] = target: T1, human TSLPR (on cells); assay: cell-based or functional assay; remark: listed apart in the source

Binder	IC50 proliferation (example 4) (human TSLPR (on cells) [1])	Kd [2]	IC50 [3]	IC50 DC assay (example 7), TARC secretion (human TSLPR (on cells) [4])	IC50 proliferation (example 4) (human TSLPR (on cells) [4])	EC50 (human TSLPR (on cells) [5])	EC50 [6]	Kd [7]	IC50, IL-5 release in Th2 polarization assay (human TSLPR (on cells) [8])	IC50, IL-13 release in Th2 polarization assay (human TSLPR (on cells) [8])	IC50, TARC secretion by human dendritic cells stimulated with TSLP (human TSLPR (on cells) [8])	average IC50, mast cell cytokine production (IL-13, IL-5, GMCSF) (human TSLPR (on cells) [8])
1D6.C9 (WO2007/112146) (antibody, from another filing, V domains shown) VH: QIQLGQSGPELKKPGETVKISCKASGYTFTTYGMSWVKQAPGKGLQWMGWINTYSGVPRYADDFKGRFAFSLETSASTAYLQIYNLKNEDTATYFCTREGFITTVVGAAGRFVYWGQGTLVTVSA VL: DIVMTQSHKFMSTSVGDRVSITCKASQDVGTAVAWYQQKPGQSPKLLIYWASTRHTGVPDRFTGSGSGTDFTLTLNNVQSEDLADYFCQQYSTYPTFGSGTKLELKR	0.084 mg/L	2.97 nM	0.0152 mg/L	–	–	–	–	–	–	–	–	–
TSLPR-012_189, CDR grafted (antibody, V domains shown, Humanized (CDR grafted) variant of hamster TSLPR-012; human kappa and human IgG1 or IgG4(S228P,L235E) appear only as embodiments) VH: QVQLVESGGGLVKPGGSLRLSCAASGFSITTSGYYWTWIRQFPGKGLEWMGYIGYNSKTYYNPALKSRITISRDNAKNSLYLQMNSLRAEDTAVYYCARSLYGGYKDAFDSWGQGTLVTVSS VL: EIVMTQSPATLSVSPGERATLSCRASQSIGTSLHWYQQKPGQAPRLLIKFASRSITGIPARFSGSGSGTEFTLTISSLQSEDFAVYYCQQSPGFPPTFGQGTKLEIKR	–	–	0.0136 mg/L	0.023 mg/L	0.025 mg/L	0.0149 mg/L	0.0103 mg/L	0.6 nM	–	–	–	–
TSLPR-012 (hamster) (antibody, V domains shown, Parent Armenian hamster monoclonal antibody; the hamster constant regions are not; also called TSLP-012; hamster antibody TSLPR-012) VH: QIQLQESGPGLVKPSQSLSLTCSVTGFSITTSGYYWTWIRQFPGKKLEWMGYIGYNSKTYYNPSLKSRISITRDTSKNQFLLHLNSVTTEDTATYYCARSLYGGYKDAFDSWGQGTLVTVSS VL: DVVLTQTPATLSAIPGERVTMTCKASQSIGTSLHWYQHRPNETPRLLIKFASRSITGIPSRFSGSGSGTDFTLGINNLEAEDFAIYYCQQSPGFPPTFGSGTKLEINR	–	–	0.0088 mg/L	0.129 mg/L	0.026 mg/L	0.0156 mg/L	0.0118 mg/L	0.25 nM	–	–	–	–
TSLPR-012_141, CDR grafted (antibody, V domains shown, Humanized (CDR grafted) variant of hamster TSLPR-012; human kappa and human IgG1 or IgG4(S228P,L235E) appear only as embodiments) VH: QVQLVESGGGLVKPGGSLRLSCAASGFSITTSGYYWTWIRQFPGKGLEWMGYIGYNSKTYYNPALKSRITISRDNAKNSLYLQMNSLRAEDTAVYYCARSLYGGYKDAFDSWGQGTLVTVSS VL: DIQMTQSPSSLSASVGDRVTITCRASQSIGTSLHWYQQKPGKAPKLLIKFASRLQSGVPSRFSGSGSGTDFTLTISSLQPEDFATYYCQQSPGFPPTFGQGTKLEIKR	–	–	0.0104 mg/L	0.046 mg/L	0.037 mg/L	0.0133 mg/L	0.0097 mg/L	0.87 nM	1.62 nM	2.57 nM	2.4 nM	0.04 to 0.06 nM
TSLPR-012_75, CDR grafted (antibody, V domains shown, Humanized (CDR grafted) variant of hamster TSLPR-012; human kappa and human IgG1 or IgG4(S228P,L235E) appear only as embodiments) VH: QVQLVESGGGLVKPGGSLRLSCAASGFSITTSGYYWTWIRQFPGKGLEWMGYIGYNSKTYYNPALKSRITISRDNAKNSLYLQMNSLRAEDTAVYYCARSLYGGYKDAFDSWGQGTLVTVSS VL: EIVLTQSPDFQSVTPKEKVTITCRASQSIGTSLHWYQQKPDQSPKLLIKFASRSISGVPSRFSGSGSGTDFTLTINSLEAEDAATYYCQQSPGFPPTFGQGTKLEIKR	–	–	0.0134 mg/L	0.042 mg/L	0.026 mg/L	0.0157 mg/L	0.0108 mg/L	0.5 nM	–	–	–	–
TSLPR-012_166, CDR grafted (antibody, V domains shown, Humanized (CDR grafted) variant of hamster TSLPR-012; human kappa and human IgG1 or IgG4(S228P,L235E) appear only as embodiments) VH: QVQLQESGPGLVKPSQTLSLTCTVSGFSITTSGYYWSWIRQHPGKGLEWIGYIGYNSKTYYSPSLKSRVTISRDTSKNQFSLKLSSVTAADTAVYYCARSLYGGYKDAFDSWGQGTLVTVSS VL: DIQMTQSPSSLSASVGDRVTITCRASQSIGTSLHWYQHRPGETPKLLIKFASRSISGVPSRFSGSGSGTDFTLTISSLQPEDFATYYCQQSPGFPPTFGQGTKLEIKR	–	–	0.0122 mg/L	0.086 mg/L	0.034 mg/L	0.0118 mg/L	0.0086 mg/L	2.45 nM	–	–	–	–

From patent US20120020988A1 (Hoffmann-La Roche, published 2012)
